The test has as its target SARS-CoV-2 wildtype spike antigen of the SPR column (construct not stated) (SARS-CoV-2). As to the kind of experiment: SPR. On the technique in general: SPR reads the build-up and loss of mass on a sensor chip optically.

Experimental findings from publication PMC9951844 are described below.

B1: YB9-258 (antibody, V domains shown)
VH: EVQLVESGGGLIQPGGSLRLSCAASGLTVSSNYMHWVRQAPGKGLEWVSVLYAGGSAFYADSVKGRFTISRNNSKNTLYLQMNSLRAEDTAIYYCARGLGDYLDSWGQGTLVTVSS
VL: DIQMTQSPSSVSASVGDRVTITCRASQGIGSWLAWYQQKPGKAPQLLIYAASTLQSGVPPRFSGSGSGTDFTLTITSLQPEDFASYYCQQANSVLALTFGGGTKVEIK
Regarding B1, the Kd (in general, the constant that tells how readily two partners part at equilibrium) was determined as 0.18 nM.
